Experimental data published in the DeepSol protein solubility set.

assay: soluble on expression in E. coli; label from the status in PepcDB or PDB records

Row | Sequence | soluble on expression in E. coli
1 | MGRAAEVPGPEPGQQEQLVFGSGDAVELSCPPPGGGPMGPTVWVKDGTGLVPSERVLVGPQRLQVLNASHEDSGAYSCRQRLTQRVLCHFSVRVTDAPSSGDDEDGEDEAEDTGVDTGAPYWTRPERMDKKLLAVPAANTVRFRCPAAGNPTPSISWLKNGREFRGEHRIGGIKLRHQQWSLVMESVVPSDRGNYTCVVENKFGSIRQTYTLDVLERSPHRPILQAGLPANQTAVLGSDVEFHCKVYSDAQPHIQWLKHVEVNGSKVGPDGTPYVTVLKTAGANTTDKELEVLSLHNVTFEDAGEYTCLAGNSIGFSHHSAWLVVLPAEEELVE | soluble
2 | MDAYLDYISGIWSKIDKKFHDQDISAKVAILQLVARPYYYWIQENPAQEKPVVEESQPRKQDNLREITSKYGDALQVDSDTVKIVKRLNTDEFNKLKEDLRQLGFLYDAQLRGFKKKQ | not soluble
3 | MKRYTPDFPEMMRLCEMNFSQLRRLLPRNDAPGETVSYQVANAQYRLTIVESTRYTTLVTIEQTAPAISYWSLPSMTVRLYHDAMVAEVCSSQQIFRFKARYDYPNKKLHQRDEKHQINQFLADWLRYCLAHGAMAIPVY | not soluble
4 | MLKDQANQLEFPRDFLGISLADQPNKYYFIIRTQRIVLEADSSIQLIMEKLQSYKSKVALYFDGFQYQLGDFRLRVGKVVPTHSENVRGIVMEVEYLPISSMEKAQKVMEEFLEIWNEALAKRSLPGKFVNIDLNFGEFGLGDIYTPQHTAVRYALVMAHMIATVQAVRG | soluble
5 | MLIANEVYHALNLEEVWFLPNQIPPHKQGRDITSVESRLQMLELATEAEEHFSICLEELSRKGPSYTYDTMLQLTKKYPDVQFHFIIGGDMVEYLPKWYNIEALLDLVTFVGVARPGYKLRTPYPITTVEIPEFAVSSSLLRERYKEKKTCKYLLPEKVQVYIERNGLYES | not soluble
6 | MGSDKIHHHHHHMSRAPDTWILTADCPSMLGTVDVVTRYLFEQRCYVTEHHSFDDRQSGRFFIRVEFRQPDDFDEAGFRAGLAERSEAFGMAFELTAPNHRPKVVIMVSKADHCLNDLLYRQRIGQLGMDVVAVVSNHPDLEPLAHWHKIPYYHFALDPKDKPGQERKVLQVIEETGAELVILARYMQVLSPELCRRLDGWAINIHHSLLPGFKGAKPYHQAYNKGVKMVGATAHYINNDLDEGPIIAQGVEVVDHSHYPEDLIAKGRDIECLTLARAVGYHIERRVFLNANRTVVL | not soluble
7 | MSLQLLAEIVTVHTKHPFIIARGGQSEYQVVWVRLIDADGAEGWGEASPSKYYGETADTVMVALQRFAPVLAGADAWSIEAIERELEKAMRWNAAARCAVSAALHDLAARRLGVPLWKMWGLDRQATPISSFTIGIAPDAATLRARVREAAHYPLLKIKLGSSWDREVLRIVREEAPKAQLRVDANAAWTAKQALGMLDVLNEVGVDMLEQPLPPQELAGLRFVRERSNIPVVADESCLVASDIPKLEGIVDGVNIKLAKCGSLREALRMIAVARAHGMRVMCGCMIETTLGIAAAAHFSPLLDDADLDGAALLSDDPFDGPGIPDGRVVLGDAPGLGVTRRAGNEGHHHHHH | soluble
8 | AHHHHHHGSKARGRAWKYGDNIDTDVIIPARYLNTSDPKELAQHVLEDLDPEFRYKMKPGDIIVAGENFGCGSSREHAPLAIKAAGVSAVIAKSFARIFYRNAINIGLPILEAPEAVERIETGDEIEIDFSTGEIRNLTKGEVYHANPFPEFIMEIIKAGGLVEWAKRRLAK | soluble
9 | MQKTFEEYERFFTTEKDMIPATIFTAPKKKFLQADSKFYEKRRVWILVISQHLVDNNLRSEDVRRFFHLESPDDDENNVDLGPSERKTATANDFDYLTTIGKGSFGRVYQVRHKETKKIYAMKILSKEHIRKKNEVKHVMAERNVLINNFKHPFLVSLHFSFQNKEKLYFVLDHLNGGELFSHLQREKHFSESRSRFYAAEIACALGYLHEKNIIYRDLKPENLLLDDKGYLVLTDFGLCKEDMQGSKTTSTFCGTPEYLAPEIILKKPYDKTVDWWCLGSVLYEMIFGLPPFYSKDHNEMYDKIINQPLRLKHNISVPCSELITGLLQKDRSKRLGHRNDFRDIRDHPFFLPVDWDKLLNRELKAPFIPKVKNAMDTSNISKEFVEIQIDPSSLAPQQLAVTHRDHDFENFTFVDTNRVLV | not soluble
10 | MSIETFTPTPLLFTPGAANKVKTLIDEEGNPRLKLRVFVTGGGCSGFQYGFTFDEDIADDDTVIERDGVGLVVDPMSFQYLAGSEVDYQEGLEGSRFVIKNPNAATTCGCGQSFSI | not soluble
11 | MKTSEWIDISQPLNNNIATWPGDTPFSYEVSWSKEESGSVNVGKLTMSIHTGTHIDAPFHFDNDGKKVLDLDVQVYVGPARIIDVSNLESIGKKELESFHLEGVERLLLRTSSHGKAEEFPEVIPHLRADIASFLSEKGIRLIGVDVPSVDPLDDKELAAHHQLFKHGIHILENVVLDHVADGDYELIALPLALTDADGSPVRAVIRPILEHHHHHH | soluble
12 | MTQATPFQLPPLALYVHIPWCVRKCPYCDFNSHAAGPELPEEAYVDALLADLEQDLRHVHGRRLGSIFFGGGTPSLFSAKALGRLLEGVERRVGFADGIEITLEANPGTFEQVKFADYRRLGINRLSIGVQSFQADKLQALGRIHDGAEAVRAADMARQAGFDNFNLDLMHGLPGQSLDDALADLRQALALAPTHLSWYQLTMEPNTVFWSQPPELPEDDILWDIQEAGQALLDEHGYRQYETSAYARDGLRARHNLNYWSFGDFLGIGAGAHAKLSAPDGRIVRTWKTRLPKDYLNPQKAFQAGERPLEAADLPFEFMMNVLRLVDGVPAALYPQRTGQPLAAIADACAAARDAGLLADDPQHLRPSERGQLFLNDLLQHFLP | not soluble
13 | MGSDKIHHHHHHMAFIKPEQQFNPDALHNLVIGIAADMGKHDSGMHHHHKAQLLYASAGCMRFSLADTQVVLPPTRAAWLPAGVEHHVTMRNVVAYRSLYFEPEAVASLPSEVTIFHVNPLLKALIDTMSYWPWNKPRYSQHNAFALFCEELENAKAENLALPLPQDKRLQTWLKQVLQQEMQPANLKEMAIEIGASERTISRIFSSQTGMAYQAWRQQWRLLSAIEQLAAGTSVAQAGFNLQFSSDSAFISFFKQYTGTTPAQYFK | not soluble
14 | MLDINLFREEKGNNPEIIRESQRRRFASVEIVDEIIKLDKEWRQRQFEVDSFRKEFNKLNKQVAQLKIKKEDASEIIQQTEKNKQDSTAKEAEVREAYAALKAKLEQVGNLVHDSVPVDKDEANNLVIKLWGEKRFSTPGLKLKNHVDLVELLGIADTKRGAEIAGARGFFLKGDGLMLNQALINFGLTFLKKRGFTGLQPPFFMRKDVMAKCAQLAQFDEELYKVTGEGDDKYLIATAEQPLCAYHIDEWIHPTELPLRYAGYSSCFRKEAGSHGRDTLGIFRVHQFEKIEQFCITGPNENASWEMLDEMMKNSEDFYQALKLPYQIVSIVSGALNDAAAKKYDLEAWFPSSETFRELVSCSNCTDYQARRLEIRYGQKKSNEQTKQYVHMLNSTLTATERTICCILENYQREDGVDIPEVLQPFMGGETFLPFKAKPVVADTKGKKSKA | soluble
15 | MRGSHHHHHHTDPALRAAIIPKNYARLESGYREKALKIYPWVCGRCSREFVYSNLRELTVHHIDHDHTNNPEDGSNWELLCLYCHDHEHSKYTEADQYGTTVIAGEDAQKDVGEAKYNPFADLKAMMNKKKGLCGR | soluble
16 | MAEKKLLLGDEAIALGAIHAGISGVYAYPGTPSTEITEFIQNNRLAKERKLHSTWCTNEKTAMEAALGMSYAGKRALVCMKHVGMNVAADAFVNSAITGVNGGLVVLAADDPSMHSSQNEQDSRFYGKFAMIPMLEPSSQQEAYDMMDYAYTLSEKLKLPVLMRVVTRLAHSRAGVEVADIREENQLNPD | soluble
17 | MSLITCKFKNLGNLHAGGCGYIPLSSTREERVKNGSRVVSTALLSSYHKGIAFVIFPSHHHTPTRPPSPKPSGSGGYLLNLRRRDPPQAFLSGCPPLPPRGSVLLGCTPPRTQFFVFHVVSYPLVLQKLLQTRDQKSIGSNSSCDTSEMSDCWQVTLSI | not soluble
18 | MATSLQAAATFLQPAKIAASPSRNVHLRSNQTVGKSFGLDSSQARLTCSLHSDLKDFAGKCSDAAKIAGFALATSALVVSGAGAEGAPKRLTYDEIQSKTYMEVKGTGTANQCPTIDGGSETFSFKAGKYTGKKFCFEPTSFTVKADSVSKNAPPDFQNTKLMTRLTYTLDEIEGPFEVGSDGSVKFKEEDGIDYAAVTVQLPGGERVPFLFTVKQLEASGKPESFSGKFLVPSYRGSSFLDPKGRGGSTGYDNAVALPAGGRGDEEELSKENVKNTAASVGEITLKITKSKPETGEVIGVFESLQPSDTDLGAKVPKDVKIQGVWYGQIE | soluble
19 | SNAMTEARKIPKPSFPYGSPGELNSFLPYLLTRITHIWSSELNQALASEKLPTPKLRLLSSLSAYGELTVGQLATLGVMEQSTTSRTVDQLVDEGLAARSISDADQRKRTVVLTRKGKKKLAEISPLINDFHAELVGNVDPDKLQTCIEVLGEILKGKTDY | soluble
20 | MASDDEEDFTQLQINQNRKHKKAGGWQQIGLDHSVYKAIEKKGFNQPTPIQRKTIPCIMDGKDVVAMSRTGSGKTAAFVIPMLQKLKRRDTTGIRALMVSPTRELALQTFKVVKELGRFTGLRCACLVGGDQIEEQFSTIHENPDILLATPGRLLHVIVEMDLRLSYVQYVVFDEADRLFEMGFQDQLTETLKRIPESRQTLLFSATLPKMLVDFAKAGLTDPMLVRLDVDEKVSDKLSMVFCMCRPDEKLFALLHLCRNFCFKKLLETSLKKCKISKKKVPLLKKVRMDRENKQTVVFCATMKHVEYVVGILHRAGIDCSFVYSQLDATARKMNIQKFHEKQNNILVVTDVAARGVDIPLLDTVINLHFPPKAKLFVHRVGRVARAGRSGTAISLIANDELPYLTDLFMFLGKPINFASDKSEYKEDETLIGRVPDSIVSLETEFFHSIHDNNEDMQDLRQKATNAMMKYTRTRPPPSAESARRVKQDIRTDSVECAPHPFLKADGDKQSNDILNKISQYKSRNTIFEMNKSQKSQALAVMQAKRKAHEPRISTVTEEKRKQKEEKEQQQKSTDIAVEIAEKTVENAGEDELAEVFGTVIGSTKHTEKSEEKGGKKRKIGTGKRIDRAEQMKFEREKHYVPYMSSDHVAERHLALDTVDFARQAEGASVDIIMDDDRGMYQQKHGQRWDRRLKKYVGLSGGNEPANKKIRTEDGTWLPASYKTGKYEDWKQKQKIGFKKSDGGGDDGDNEGSGGMDRKRKWKMEKPKGGPKHSELKNKEQILKGRRKQEQLENYMEHRRQSNLKKKAEHLGRGGAGGARGGARGGARGGARGGSSRGARGGARGGGKFGNRR | not soluble
21 | MGSDKIHHHHHHMVNMNIIEIRSDKIYKKIMDAPINKKEDIYRYELMKPFEFKWKCMNVPIVARQKGGYDVIIASEMLGVLSPKDIDEKQKKNINVLSADKIWATCKETIENSINAFIKEGYDLNIKDYKYSILLANPNSPYTILSDGYWGDGGIPGYIFLSLVPNEYTINRLPVLIAHECNHNIRFQFIEWNNNITLEEMMINEGLAENFATWMFGEEMLGPWVSRTDIETLNTYIKPIIKSALKETGFQNITSYLYGDDIAKMQGYFPVGLPYCAGYACGYYMIKYYLEKTNKSIIEATLLPYSEIIEAVKEFWE | not soluble
22 | IGDWGYSVSANLTTISNKVKSLVQDGYSIIAGDKSQSYTMAGYPIGYFYGYKVAGVYQNQAEIDASPVNTLATVTPGDLKFADVNGDGKITPDDRTKIGDPTPDVTYGISLGLSYKNWELSMEMMGQGGNQIYRTWDNYNWAQFNYMEQRLDRWHGEGTSNTQPLLNTKHAINSENSEYFIEDGSFFRIRNLQLAYSFDKTLLSKIRMQALKVYVNIQNLKTWKHNTGYTPEIGGSAIAFGVDNGTYPVPAVYTFGINLTF | not soluble
